# T1: CD5 on human T cells (autologous and allogeneic Pan-T cells) and on the T-ALL cell line CCRF-CEM (human, UniProt P06127 25-495)
# T1 sequence (looked up): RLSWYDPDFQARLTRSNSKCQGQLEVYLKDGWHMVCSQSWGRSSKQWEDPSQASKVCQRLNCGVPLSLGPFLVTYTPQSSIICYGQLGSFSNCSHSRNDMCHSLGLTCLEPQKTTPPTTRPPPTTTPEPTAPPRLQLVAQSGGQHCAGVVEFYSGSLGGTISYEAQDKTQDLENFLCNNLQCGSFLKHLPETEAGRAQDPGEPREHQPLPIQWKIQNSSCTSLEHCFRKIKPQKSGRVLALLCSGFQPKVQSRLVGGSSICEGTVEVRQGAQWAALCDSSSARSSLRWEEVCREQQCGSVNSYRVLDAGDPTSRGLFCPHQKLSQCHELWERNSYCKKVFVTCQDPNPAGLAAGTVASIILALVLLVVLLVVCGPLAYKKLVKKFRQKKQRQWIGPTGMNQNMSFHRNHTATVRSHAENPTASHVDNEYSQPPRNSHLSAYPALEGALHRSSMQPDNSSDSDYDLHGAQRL
# B1: CD5/CD33 Dual-CAR, construct S040 (other)
# chain: DIQMTQSPSSLSASVGDRVTITCRASQDINSYLSWFQQKPGKAPKTLIYRANRLESGVPSRFSGSGSGTDYTLTISSLQYEDFGIYYCQQYDESPWTFGGGTKLEIKGGGGSQVQLVQSGAEVKKPGSSVKVSCKASGYTFTDYNMHWVRQAPGQGLEWIGYIYPYNGGTGYNQKFKSKATITADESTNTAYMELSSLRSEDTAVYYCARGRPAMDYWGQGTLVTVSSGSTSGSGKPGSGEGSTKGDIQMTQSPSSLSASVGDRVTITCRASESVDNYGISFMNWFQQKPGKAPKLLIYAASNQGSGVPSRFSGSGSGTDFTLTISSLQPDDFATYYCQQSKEVPWTFGQGTKVEIKGGGGSEIQLVQSGGGLVKPGGSVRISCAASGYTFTNYGMNWVRQAPGKGLEWMGWINTHTGEPTYADSFKGRFTFSLDDSKNTAYLQINSLRAEDTAVYFCTRRGYDWYFDVWGQGTTVTVSSASTTTPAPRPPTPAPTIASQPLSLRPEACRPAAGGAVHTRGLDFACDIYIWAPLAGTCGVLLLSLVITLYCKRGRKKLLYIFKQPFMRPVQTTQEEDGCSCRFPEEEEGGCELRVKFSRSADAPAYKQGQNQLYNELNLGRREEYDVLDKRRGRDPEMGGKPRRKNPQEGLYNELQKDKMAEAYSEIGMKGERRRGKGHDGLYQGLSTATKDTYDALHMQALPPR
# B2: CD5/CD33 Dual-CAR, construct S042 (other)
# chain: DIQMTQSPSSLSASVGDRVTITCRASESVDNYGISFMNWFQQKPGKAPKLLIYAASNQGSGVPSRFSGSGSGTDFTLTISSLQPDDFATYYCQQSKEVPWTFGQGTKVEIKGGGGSEIQLVQSGGGLVKPGGSVRISCAASGYTFTNYGMNWVRQAPGKGLEWMGWINTHTGEPTYADSFKGRFTFSLDDSKNTAYLQINSLRAEDTAVYFCTRRGYDWYFDVWGQGTTVTVSSGSTSGSGKPGSGEGSTKGDIQMTQSPSSLSASVGDRVTITCRASQDINSYLSWFQQKPGKAPKTLIYRANRLESGVPSRFSGSGSGTDYTLTISSLQYEDFGIYYCQQYDESPWTFGGGTKLEIKGGGGSQVQLVQSGAEVKKPGSSVKVSCKASGYTFTDYNMHWVRQAPGQGLEWIGYIYPYNGGTGYNQKFKSKATITADESTNTAYMELSSLRSEDTAVYYCARGRPAMDYWGQGTLVTVSSASTTTPAPRPPTPAPTIASQPLSLRPEACRPAAGGAVHTRGLDFACDIYIWAPLAGTCGVLLLSLVITLYCKRGRKKLLYIFKQPFMRPVQTTQEEDGCSCRFPEEEEGGCELRVKFSRSADAPAYKQGQNQLYNELNLGRREEYDVLDKRRGRDPEMGGKPRRKNPQEGLYNELQKDKMAEAYSEIGMKGERRRGKGHDGLYQGLSTATKDTYDALHMQALPPR
# B3: CD5/CD33 Dual-CAR, construct S037 (other)
# chain: NIQLVQSGPELKKPGETVKISCKASGYTFTNYGMNWVKQAPGKGLRWMGWINTHTGEPTYADDFKGRFAFSLETSASTAYLQINNLKNEDTATYFCTRRGYDWYFDVWGAGTTVTVSSGGGGSDIQMTQSPSSLSASVGDRVTITCRASESVDNYGISFMNWFQQKPGKAPKLLIYAASNQGSGVPSRFSGSGSGTDFTLTISSLQPDDFATYYCQQSKEVPWTFGQGTKVEIKGSTSGSGKPGSGEGSTKGQVQLVQSGAEVKKPGSSVKVSCKASGYTFTDYNMHWVRQAPGQGLEWIGYIYPYNGGTGYNQKFKSKATITADESTNTAYMELSSLRSEDTAVYYCARGRPAMDYWGQGTLVTVSSGGGGSDIKMTQSPSSMYASLGERVTITCKASQDINSYLSWFHHKPGKSPKTLIYRANRLVDGVPSRFSGSGSGQDYSLTISSLDYEDMGIYYCQQYDESPWTFGGGTKLEMKASTTTPAPRPPTPAPTIASQPLSLRPEACRPAAGGAVHTRGLDFACDIYIWAPLAGTCGVLLLSLVITLYCKRGRKKLLYIFKQPFMRPVQTTQEEDGCSCRFPEEEEGGCELRVKFSRSADAPAYKQGQNQLYNELNLGRREEYDVLDKRRGRDPEMGGKPRRKNPQEGLYNELQKDKMAEAYSEIGMKGERRRGKGHDGLYQGLSTATKDTYDALHMQALPPR
# B4: CD5/CD33 Dual-CAR, construct S039 (other)
# chain: QVQLVQSGAEVKKPGSSVKVSCKASGYTFTDYNMHWVRQAPGQGLEWIGYIYPYNGGTGYNQKFKSKATITADESTNTAYMELSSLRSEDTAVYYCARGRPAMDYWGQGTLVTVSSGGGGSDIKMTQSPSSMYASLGERVTITCKASQDINSYLSWFHHKPGKSPKTLIYRANRLVDGVPSRFSGSGSGQDYSLTISSLDYEDMGIYYCQQYDESPWTFGGGTKLEMKGSTSGSGKPGSGEGSTKGNIQLVQSGPELKKPGETVKISCKASGYTFTNYGMNWVKQAPGKGLRWMGWINTHTGEPTYADDFKGRFAFSLETSASTAYLQINNLKNEDTATYFCTRRGYDWYFDVWGAGTTVTVSSGGGGSDIQMTQSPSSLSASVGDRVTITCRASESVDNYGISFMNWFQQKPGKAPKLLIYAASNQGSGVPSRFSGSGSGTDFTLTISSLQPDDFATYYCQQSKEVPWTFGQGTKVEIKASTTTPAPRPPTPAPTIASQPLSLRPEACRPAAGGAVHTRGLDFACDIYIWAPLAGTCGVLLLSLVITLYCKRGRKKLLYIFKQPFMRPVQTTQEEDGCSCRFPEEEEGGCELRVKFSRSADAPAYKQGQNQLYNELNLGRREEYDVLDKRRGRDPEMGGKPRRKNPQEGLYNELQKDKMAEAYSEIGMKGERRRGKGHDGLYQGLSTATKDTYDALHMQALPPR
# B5: CD5/CD33 Dual-CAR, construct S038 (other)
# chain: DIQMTQSPSSLSASVGDRVTITCRASESVDNYGISFMNWFQQKPGKAPKLLIYAASNQGSGVPSRFSGSGSGTDFTLTISSLQPDDFATYYCQQSKEVPWTFGQGTKVEIKGGGGSNIQLVQSGPELKKPGETVKISCKASGYTFTNYGMNWVKQAPGKGLRWMGWINTHTGEPTYADDFKGRFAFSLETSASTAYLQINNLKNEDTATYFCTRRGYDWYFDVWGAGTTVTVSSGSTSGSGKPGSGEGSTKGDIKMTQSPSSMYASLGERVTITCKASQDINSYLSWFHHKPGKSPKTLIYRANRLVDGVPSRFSGSGSGQDYSLTISSLDYEDMGIYYCQQYDESPWTFGGGTKLEMKGGGGSQVQLVQSGAEVKKPGSSVKVSCKASGYTFTDYNMHWVRQAPGQGLEWIGYIYPYNGGTGYNQKFKSKATITADESTNTAYMELSSLRSEDTAVYYCARGRPAMDYWGQGTLVTVSSASTTTPAPRPPTPAPTIASQPLSLRPEACRPAAGGAVHTRGLDFACDIYIWAPLAGTCGVLLLSLVITLYCKRGRKKLLYIFKQPFMRPVQTTQEEDGCSCRFPEEEEGGCELRVKFSRSADAPAYKQGQNQLYNELNLGRREEYDVLDKRRGRDPEMGGKPRRKNPQEGLYNELQKDKMAEAYSEIGMKGERRRGKGHDGLYQGLSTATKDTYDALHMQALPPR
# B6: CD5/CD33 Dual-CAR, construct S041 (other)
# chain: EIQLVQSGGGLVKPGGSVRISCAASGYTFTNYGMNWVRQAPGKGLEWMGWINTHTGEPTYADSFKGRFTFSLDDSKNTAYLQINSLRAEDTAVYFCTRRGYDWYFDVWGQGTTVTVSSGGGGSDIQMTQSPSSLSASVGDRVTITCRASESVDNYGISFMNWFQQKPGKAPKLLIYAASNQGSGVPSRFSGSGSGTDFTLTISSLQPDDFATYYCQQSKEVPWTFGQGTKVEIKGSTSGSGKPGSGEGSTKGQVQLVQSGAEVKKPGSSVKVSCKASGYTFTDYNMHWVRQAPGQGLEWIGYIYPYNGGTGYNQKFKSKATITADESTNTAYMELSSLRSEDTAVYYCARGRPAMDYWGQGTLVTVSSGGGGSDIQMTQSPSSLSASVGDRVTITCRASQDINSYLSWFQQKPGKAPKTLIYRANRLESGVPSRFSGSGSGTDYTLTISSLQYEDFGIYYCQQYDESPWTFGGGTKLEIKASTTTPAPRPPTPAPTIASQPLSLRPEACRPAAGGAVHTRGLDFACDIYIWAPLAGTCGVLLLSLVITLYCKRGRKKLLYIFKQPFMRPVQTTQEEDGCSCRFPEEEEGGCELRVKFSRSADAPAYKQGQNQLYNELNLGRREEYDVLDKRRGRDPEMGGKPRRKNPQEGLYNELQKDKMAEAYSEIGMKGERRRGKGHDGLYQGLSTATKDTYDALHMQALPPR
# B7: CD5/CD33 Dual-CAR, construct S036 (other)
# chain: DIKMTQSPSSMYASLGERVTITCKASQDINSYLSWFHHKPGKSPKTLIYRANRLVDGVPSRFSGSGSGQDYSLTISSLDYEDMGIYYCQQYDESPWTFGGGTKLEMKGGGGSQVQLVQSGAEVKKPGSSVKVSCKASGYTFTDYNMHWVRQAPGQGLEWIGYIYPYNGGTGYNQKFKSKATITADESTNTAYMELSSLRSEDTAVYYCARGRPAMDYWGQGTLVTVSSGSTSGSGKPGSGEGSTKGDIQMTQSPSSLSASVGDRVTITCRASESVDNYGISFMNWFQQKPGKAPKLLIYAASNQGSGVPSRFSGSGSGTDFTLTISSLQPDDFATYYCQQSKEVPWTFGQGTKVEIKGGGGSNIQLVQSGPELKKPGETVKISCKASGYTFTNYGMNWVKQAPGKGLRWMGWINTHTGEPTYADDFKGRFAFSLETSASTAYLQINNLKNEDTATYFCTRRGYDWYFDVWGAGTTVTVSSASTTTPAPRPPTPAPTIASQPLSLRPEACRPAAGGAVHTRGLDFACDIYIWAPLAGTCGVLLLSLVITLYCKRGRKKLLYIFKQPFMRPVQTTQEEDGCSCRFPEEEEGGCELRVKFSRSADAPAYKQGQNQLYNELNLGRREEYDVLDKRRGRDPEMGGKPRRKNPQEGLYNELQKDKMAEAYSEIGMKGERRRGKGHDGLYQGLSTATKDTYDALHMQALPPR
# Target: T1, CD5 on human T cells (autologous and …)
# Assay: cell-based or functional assay
row,Binder,elimination of CCRF-CEM cells after 18 hours (luciferase-based killing assay) [%]
1,B1,~100
2,B2,~100
3,B3,~100
4,B4,~100
5,B5,~100
6,B6,~100
7,B7,~100
